According to publication PMC6201568:

Assays:
Conditions in all cases: 285 mM Tris-HCl pH 8.0, 0.14 mg/mL BSA, 1.43 mM DTT, 5% glycerol, 0.04 mg/mL poly(dI-dC), 3.06 mM EDTA, 10 uL, 30 min at 25 C, 6% PAGE in TAE pH 8.2
[1] = test system: T1, PhaR-His6 (Bradyrhizobium diazoefficiens USDA110), ORF:9916d0df; experiment: EMSA
T1 sequence: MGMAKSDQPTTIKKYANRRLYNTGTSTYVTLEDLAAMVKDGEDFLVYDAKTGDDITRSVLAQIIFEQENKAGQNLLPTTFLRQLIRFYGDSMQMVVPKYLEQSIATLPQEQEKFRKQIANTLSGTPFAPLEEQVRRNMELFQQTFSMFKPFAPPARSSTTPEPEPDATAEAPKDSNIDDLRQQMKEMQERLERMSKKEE

[2] = test system: T1, PhaR-His6 (Bradyrhizobium diazoefficiens USDA110), ORF:9916d0df; experiment: DNase I footprinting
[3] = test system: PhaR-His6 (Bradyrhizobium diazoefficiens USDA110); experiment: EMSA

CACAAGATGATGCTCGATCACTACCAGCAGACCAAGAATCTCCTGGTCAGCTACAGCCCGAAGAAGCTCGGCTTCTTCTGATCGGAACAGGAGCGGGCGGCGCCGTTCTGGCGCCGCTCGTTCCGGTAAACGGGACCTGGCCCGCACGGCGTTAGATTTGTTGCCTGATCAGCGCCAAAGATTTTCCAATATTTCGATCACGTTGCAGTGCGGCATAATGAATGTCGTGTCATGCCGCCGCGGTGCTTTCCAAGGGTGTTTGACTTGGGTTAGAGAGGACGAAAGTTTTCTCTGACCCGG (double strand) [pdhA promoter]
binding [1]: binds more weakly

CTAAGGTGATGTTCTCAAACGGCTTTTGGCCGCTTGCGGAAGCTGAACACGTCCAGGGAATCAAGGTAGGGGTCCGCGGTTTCCAAAAGCTTAAGGAACCCTTGCGGGAAACCCCGGGAATCTCTTCGGTTTGGATCTAGTTTTTGTGCGACGCACAAGATTCTTGACTTTTTTGTGCGTTGCACTAATTGTGGGCAGAGTCAGGGAGCCGGGGCTTCCCGACGCGAGCCAGGGAAAAGGATTCCGAAATGTTCAAGGTTGAAGACTTTCAGAGCTACGGGAAAGAGCAGTTC (double strand) [FAM-phaP1 promoter (footprint)]
binding [2]: binds

CTCTCACTTGCAAGACGCTGAGAACGGGAACCCGGCGGCCGATGCCGCAGGGCGGGAAGAGTACGCAACGCAACAAAATAAGCATTTTCAAAGGGGTCACGCTACCGTTTTGTGCGCCACGGTTAATCGGGCAGCAAAAACGT (double strand) [phaR promoter]
K half [1]: 110 nM

phaR promoter
K half ([3]; half of DNA in complex at highest concentration): 110 nM

ppc promoter
K half ([3]; about half of DNA shifted only at highest concentration): 110 nM
